Laboratory results taken from patent US20200062856A1 (XDCEXPLORER SHANGHAI, published 2020).

Legend:
[1] = biological target: cynomolgus TPBG protein, full-length, on the cell surface (cynomolgus) (UniProt Q4R8Y9); test: FACS, CHOk1-cTPBG 3F13G4 cells
[2] = biological target: human TPBG protein, full-length, on the cell surface (human) (UniProt Q13641); test: FACS, CHOk1-hTPBG 3A2F1 cells
[3] = biological target: human TPBG protein, full-length, on the cell surface (human) (UniProt Q13641); test: FACS, HEK293 clone 293F-hTPBG 4C5
[4] = biological target: human TPBG protein, full-length, on the cell surface (human) (UniProt Q13641); test: FACS, HEK293 clone 293F-hTPBG 5E5
human TPBG-hFc protein [5] = biological target: T1, human TPBG-hFc protein (human, UniProt Q13641 32-355); test: ELISA, coated human TPBG-hFc 1.0 ug/mL; control IgG at 20 nM
T1 construct: range 32-355; Expressed in HEK293 cells, purified on protein A; also called immunogen A; hFc tagged TPBG protein; not shown: human IgG Fc fragment of the pCpC vector
T1 sequence (looked up): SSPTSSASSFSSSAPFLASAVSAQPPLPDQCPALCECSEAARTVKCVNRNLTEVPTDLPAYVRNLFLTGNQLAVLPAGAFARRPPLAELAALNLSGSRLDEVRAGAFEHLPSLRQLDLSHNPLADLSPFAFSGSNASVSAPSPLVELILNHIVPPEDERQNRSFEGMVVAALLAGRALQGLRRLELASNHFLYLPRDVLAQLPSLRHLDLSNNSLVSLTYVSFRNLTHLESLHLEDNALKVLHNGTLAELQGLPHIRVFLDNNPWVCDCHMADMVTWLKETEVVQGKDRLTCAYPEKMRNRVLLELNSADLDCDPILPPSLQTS

human TPBG-hFc protein [6] = biological target: T1, human TPBG-hFc protein; test: ELISA, coated human TPBG-hFc 1.0 ug/mL; control IgG at 2 nM
[7] = biological target: human TPBG protein, full-length, on the cell surface (human) (UniProt Q13641); test: FACS, HEK293 clone 293F-hTPBG 4B9
[8] = biological target: human TPBG protein, full-length, on the cell surface (human) (UniProt Q13641); test: FACS, HEK293 clone 293F-hTPBG 4C3
[9] = biological target: human TPBG protein, full-length, on the cell surface (human) (UniProt Q13641); test: FACS, HEK293 clone 293F-hTPBG 4G6
human TPBG-hFc protein [10] = biological target: T1, human TPBG-hFc protein; test: ELISA, coated human TPBG-hFc 1.0 ug/mL; control IgG at 0.002 nM
[11] = biological target: human TPBG protein, full-length, on the cell surface (human) (UniProt Q13641); test: FACS, HEK293 clone 293F-hTPBG 4A8
[12] = biological target: human TPBG protein, full-length, on the cell surface (human) (UniProt Q13641); test: FACS, HEK293 clone 293F-hTPBG 4F9
[13] = biological target: human TPBG protein, full-length, on the cell surface (human) (UniProt Q13641); test: FACS, HEK293 clone 293F-hTPBG 4E1 (NO 8)
[14] = biological target: human TPBG protein, full-length, on the cell surface (human) (UniProt Q13641); test: FACS, HEK293 clone 293F-hTPBG 5C12
human TPBG-hFc protein [15] = biological target: T1, human TPBG-hFc protein; test: ELISA, coated human TPBG-hFc 1.0 ug/mL; control IgG at 200 nM
[16] = biological target: human TPBG protein, full-length, on the cell surface (human) (UniProt Q13641); test: FACS, HEK293 clone 293F-hTPBG 5E6
[17] = biological target: human TPBG protein, full-length, on the cell surface (human) (UniProt Q13641); test: FACS, HEK293 clone 293F-hTPBG 5G8
[18] = biological target: human TPBG protein, full-length, on the cell surface (human) (UniProt Q13641); test: FACS, HEK293 clone 293F-hTPBG 5A11
[19] = biological target: human TPBG protein, full-length, on the cell surface (human) (UniProt Q13641); test: FACS, HEK293 clone 293F-hTPBG 5H6
[20] = biological target: human TPBG protein, full-length, on the cell surface (human) (UniProt Q13641); test: FACS, HEK293 clone 293F-hTPBG 4A9
[21] = biological target: human TPBG protein, full-length, on the cell surface (human) (UniProt Q13641); test: FACS, HEK293 clone 293F-hTPBG 5D4
[22] = biological target: human TPBG protein, full-length, on the cell surface (human) (UniProt Q13641); test: FACS, HEK293 clone 293F-hTPBG 4H12
[23] = biological target: human TPBG protein, full-length, on the cell surface (human) (UniProt Q13641); test: FACS, HEK293 clone 293F-hTPBG 5G11
[24] = biological target: mouse TPBG protein, full-length, on the cell surface (mouse) (UniProt Q9Z0L0); test: FACS, CHOk1-mTPBG 3A3 cells
human TPBG-hFc protein [25] = biological target: T1, human TPBG-hFc protein; test: ELISA, coated human TPBG-hFc 1.0 ug/mL; control IgG at 0.2 nM
[26] = biological target: human TPBG protein, full-length, on the cell surface (human) (UniProt Q13641); test: FACS, HEK293 clone 293F-hTPBG 5A9
[27] = biological target: human TPBG protein, full-length, on the cell surface (human) (UniProt Q13641); test: FACS, HEK293 clone 293F-hTPBG 4E1
human TPBG-hFc protein [28] = biological target: T1, human TPBG-hFc protein; test: ELISA, coated human TPBG-hFc 1.0 ug/mL; control IgG at 0.0002 nM
[29] = biological target: human TPBG protein, full-length, on the cell surface (human) (UniProt Q13641); test: FACS, HEK293 clone 293F-hTPBG 4G1
human TPBG-hFc protein [30] = biological target: T1, human TPBG-hFc protein; test: ELISA, coated human TPBG-hFc 1.0 ug/mL; control IgG at 0.02 nM

Cellular MFI [1]: 2.66 MFI
Cellular MFI [2]: 3.24 MFI
Cellular MFI [3]: 5.6 MFI
Cellular MFI [4]: 5.6 MFI
OD450 nm (human TPBG-hFc protein [5]): 0.11 OD450 nm
OD450 nm (human TPBG-hFc protein [6]): 0.1 OD450 nm
Cellular MFI [7]: 6.3 MFI
Cellular MFI [8]: 3.2 MFI
Cellular MFI [9]: 3.1 MFI
OD450 nm (human TPBG-hFc protein [10]): 0.1 OD450 nm
Cellular MFI [11]: 3.1 MFI
Cellular MFI [12]: 3.9 MFI
Cellular MFI [13]: 4.8 MFI
Cellular MFI [14]: 3.7 MFI
OD450 nm (human TPBG-hFc protein [15]): 0.24 OD450 nm
Cellular MFI [16]: 2.6 MFI
Cellular MFI [17]: 6 MFI
Cellular MFI [18]: 4.6 MFI
Cellular MFI [19]: 3 MFI
Cellular MFI [20]: 6.3 MFI
Cellular MFI [21]: 3 MFI
Cellular MFI [22]: 4 MFI
Cellular MFI [23]: 4.1 MFI
Cellular MFI [24]: 2.38 MFI
OD450 nm (human TPBG-hFc protein [25]): 0.11 OD450 nm
Cellular MFI [26]: 5 MFI
Cellular MFI [27]: 5.2 MFI
OD450 nm (human TPBG-hFc protein [28]): 0.11 OD450 nm
Cellular MFI [29]: 4 MFI
OD450 nm (human TPBG-hFc protein [30]): 0.1 OD450 nm
Substance: mouse IgG (isotype control) (antibody)
